Each block holds one binder with its values, some of them ahead of it.
How the values were obtained:
[1] = target: T1, human tissue factor (TF), membrane-bound on cells (human, UniProt P13726 33-295); experiment: FACS, A431 cells
T1 construct: whole, on cells; also called cellular TF
Summary of the method: (§1)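 Cell binding of titrated HuMabs, measured on ice by flow cytometry with PE anti-human IgGFc detection. Controls: HuMab-KLH (negative) and mouse anti-TF with PE anti-mouse IgGFc (positive).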

[2] = target: T1, human tissue factor (TF), …; experiment: FACS, Bx-PC3 cells
Summary of the method: as §1

[3] = target: T1, human tissue factor (TF), …; experiment: cell-based or functional assay
[4] = target: T1, human tissue factor (TF), …; experiment: cell-based or functional assay; remark: listed apart in the source
TF (Innovin) [5] = target: T2, TF (Innovin) (UniProt P13726 33-295, limits assumed); experiment: cell-based or functional assay
TF (Innovin) [6] = target: T2, TF (Innovin); experiment: cell-based or functional assay; remark: listed apart in the source
[7] = target: T1, human tissue factor (TF), …; experiment: FACS, Bx-PC3 cells, 30 µg/mL
Summary of the method: as §1

[8] = target: T1, human tissue factor (TF), …; experiment: FACS, MDA-MB-231 cells, 30 µg/mL
Summary of the method: as §1

[9] = target: T3, TFECDHis (extracellular domain of tissue factor, amino acid 1-251, with C-terminal His tag) (human, UniProt P13726 33-251); experiment: ELISA, coated TFECDHis, mean of 3
T3 construct: range 1-251; The stated range 1-251 starts at residue 1 of NP-001984; also called extracellular domain of TF
Summary of the method: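 Plates coated overnight at +4° C with 0.5 μg/mL TFECDHis in PBS pH 7.4, blocked with 2% chicken serum. Serially diluted HuMabs bound 1 h at RT with shaking, detected with HRP anti-human IgG. Binding curves fitted by sigmoidal dose-response with variable slope; anti-KLH HuMab served as negative control.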

[10] = target: T1, human tissue factor (TF), …; experiment: FACS, TF transfected CHO cells (S1015-TF)
Summary of the method: as §1

[11] = target: T1, human tissue factor (TF), …; experiment: FACS, TF transfected CHO cells (S1015-TF), 7.5 µg/mL
Summary of the method: as §1

[12] = target: T3, TFECDHis (extracellular domain of …); experiment: SPR BIAcore 3000, HuMab immobilized, TFECDHis analyte
Summary of the method: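 HuMab antibodies (500 RU) amine-coupled on a CM-5 chip; TFECDHis concentration series in HBS-EP run over them at 30 μl/min for 180 sec. Surface regenerated with glycine pH 2.0 or acetate pH 3.0; kinetics from double-referenced 1:1 Langmuir fitting.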

[13] = target: T1, human tissue factor (TF), …; experiment: FACS on MDA-MB-231 cells (~900.000 TF molecules/cell) [panel MDA-MB-231 cells]
Procedure: Cells were resuspended in PBS (2×10⁶ cells/ml), put in 96-well V-bottom plates (50 μl/well). 50 μl of serially diluted HuMab in FACS buffer (PBS supplemented with 0.1% BSA and 0.02% Na-azide) was added to the cells and incubated for 30 minutes on ice. After washing three times with FACS buffer, 50 μl of phycoerythrin (PE)-conjugated goat anti-human IgGFc (Jackson ImmunoResearch), diluted 1:100 in FACS buffer, was added. After 30 minutes on ice (in the dark), cells were washed three times, and specific binding of the HuMabs was detected by flow cytometry on a FACSCalibur (BD Biosciences). HuMab-KLH was used as a negative control. Mouse anti-TF followed by PE-conjugated anti-mouse IgGFc was used as positive control. Binding curves were analyzed using non-linear regression (sigmoidal dose-response with variable slope) using GraphPad Prism V4.03 software (GraphPad Software, San Diego, Calif., USA).
Binding of anti-TF HuMabs to membrane-bound TF on cell lines expressing different levels of TF was determined by FACS analysis, essentially as described supra. Mouse anti-TF antibody followed by PE-conjugated anti-mouse IgGFc was used as a positive control. Fluorescence was measured on a FACSCantoII. Binding curves were analyzed essentially as described supra, using GraphPad Prism 5 software. The amount of TF molecules on cell lines was determined by Qifi kit (Dako, Glostrup, Denmark), according to the manufacturer's instructions.

- EC50 [1]: 1.74 nM
- EC50 [2]: 4.04 nM
- % max inhibition of FVIIa induced ERK phosphorylation (A431) [3]: 72%
- IC50, inhibition of FVIIa induced ERK phosphorylation (A431) [3]: 2.42 nM
- IC50, inhibition of FVIIa induced IL-8 release (MDA-MB-231) [4]: 13.6 nM
- max inhibition of FVIIa induced IL-8 release (MDA-MB-231) [4]: 70.4%
- % max inhibition of FXa generation (TF (Innovin) [5]): 18%
- IC50, inhibition of FXa generation (TF (Innovin) [5]): 0.09 nM
- IC50, inhibition of blood coagulation (TF induced clotting time) (TF (Innovin) [6]): 7.6 nM
- Max MFI [7]: 1320
- Max MFI [8]: 2050
- EC50 [9]: 0.27 nM
- EC50 [10]: 0.92 nM
- Max MFI [11]: 5630
- Kd [12]: 4.75 nM
- EC50 (read off the curve) [13]: ~0.07 µg/mL
B1: anti-TF HuMab 109 (antibody, V domains shown)
VH: QVQLVESGGGVVQPGRSLRLSCPASGFTFSIYAMHWVRQAPGKGLEWVAVVSNDGYNKYYADSVKGRFTISRDNSKDTLYLQMNSLRAEDTAVYYCARDGQLGRGYFDYWGQGTLVTVSS
VL: EIVLTQSPATLSLSPGERAILSCRASQSVSSYLAWYQQKPGQAPRLLIYDASNRATGIPARFSGSGSGTDFTLTISSLEPEDFAVYYCQQRSNWPLTFGGGTKVEIK
notes: Human monoclonal antibody from HuMab mice

- EC50 [1]: 8.04 nM
- EC50 [2]: 1.86 nM
- % max inhibition of FVIIa induced ERK phosphorylation (A431) [3]: 26%
- IC50, inhibition of FVIIa induced ERK phosphorylation (A431) [3]: 9.11 nM
- max inhibition of FVIIa induced IL-8 release (MDA-MB-231) [4]: -0.3%
- % max inhibition of FXa generation (TF (Innovin) [5]): 31%
- IC50, inhibition of FXa generation (TF (Innovin) [5]): 0.05 nM
- IC50, inhibition of blood coagulation (TF induced clotting time) (TF (Innovin) [6]): 0.6 nM
- Max MFI [7]: 1300
- Max MFI [8]: 2450
- EC50 [9]: 0.24 nM
- EC50 [10]: 1.07 nM
- Max MFI [11]: 5210
- Kd [12]: 2.78 nM
- EC50 (read off the curve) [13]: ~0.1 µg/mL
B2: anti-TF HuMab 013 (antibody, V domains shown)
VH: EVQLVQSGAEVKKPGESLKISCKGSGYSFTSYWIGWVRQMPGKGLEWMGIIYPGDSDTRYSPSFQGQVTISADKSISTAYLQWSSLKASDTAMYYCARIHRGAGYSSSWPGAFDIWGQGTMVTVSS
VL: DIQMTQSPSSLSASVGDRVTITCRASQGISRWLAWYQQKPEKAPKSLIYAASSLQSGVPSRFSGSGSGTDFTLTISSLQPEDFATYYCQQYDSDPITFGQGTRLEIK
notes: Human monoclonal antibody from HuMab mice; also called HuMab-TF-13
